Reference: PMC5615210, “Design and Characterization of a Human Monoclonal Antibody that Modulates Mutant Connexin 26 Hemichannels Implicated in Deafness and Skin Disorders” (Frontiers in Molecular Neuroscience, 2017)
Ends that are not written are not given here. * marks the point of attachment. Biotin = O=C1N[C@H]2[C@H](CS[C@H]2CCCCC(=O)*)N1

Experiments:
[1] = molecular target: endogenous Cx26 of mouse cochlear organotypic cultures (Mus musculus C57BL6/N, UniProt Q00977); assay: immunostaining of cells or tissue; cochlear organotypic cultures of P5 mice fixed in 4% PFA, not permeabilised, abEC1.1 (2 ug/ml) overnight at 4 C, fluorescein anti-human IgG secondary antibody, confocal microscopy; control with abEC1.1 pre-incubated overnight with pepEC1.1 at 1:10 (w/w); settings: one partner purified
[2] = molecular target: T1, pepEC1.1, peptide corresponding to residues 41-56 of Cx26 (Homo sapiens); assay: ELISA; avidin-coated wells (1 ug/well), biotinylated pepEC1.1 captured (0.05 ug/well), abEC1.1 (1 mg/ml, diluted 1:100 in M-PBST) 1 h at 37 C, goat anti-human HRP conjugate, ABTS, OD at 405 nm; settings: both partners purified
T1 construct: connexin 26 (Cx26), residues 41-56 in the EC1 domain; also called bait peptide; cognate peptide; source: synthetic peptide (Chinese Peptide Company)
T1 chain: Biotin-KEVWGDEQADFVCNTL

B1: abEC1.1 antibody (scFv-Fc fusion protein) (scFv, V domains shown)
VH: QVQLQQSGGGVVQPGRSLRLSCAASGFTFSSYAMHWVRQAPGKGLEWVAVISHGGSNKYYADSVKGRFTISRDNSKNTLYLQMNSLRAEDTAVYYCARDFSWRGYYMDVWGKGTLVTVSS
VL: ETTLTQSPATLSLSPGERATLSCRASQSISSYLAWYQQKPGQAPRLLIYGASTRATGIPDRFSGSGSGTDFTLTISRLEPEDFAVYYCQQYGSSPRTFGGGTKVEIK
notes: scFv domain of abEC1.1 (VH and VL joined by a linker of seven amino acids); scFv-Fc format from a modified pFUSE vector (pfuse-hg1fc2); also called wild type abEC1.1; source: FreeStyle 293-F cells, transfected, purified (HiTrap Protein A HP); not shown: Fc (hinge and Fc of human IgG1), C-terminal, kept
B1: binds [1]; binds [2].
